Experimental data taken from the supplement of paper PMC10065799, “High-throughput profiling of sequence recognition by tyrosine kinases and SH2 domains using bacterial peptide display” (eLife, 2023).

Assays:
Jak2 = Jak2 (UniProt O60674); test: phosphorylation enrichment, bacterial display (enrichment ratio); higher = better substrate or ligand; peptides without Tyr show the background
EPHB1 = EPHB1 (UniProt P54762); test: as above
c-Src = test: as above
Fyn = Fyn (UniProt P06241); test: as above
EPHB2 = EPHB2 (UniProt P29323); test: as above
AncSZ = test: as above
Fer (mouse) = test: as above
MERTK = MERTK (UniProt Q12866); test: as above
c-Abl (mouse) = test: as above
Fes = Fes (UniProt P07332); test: as above
FGFR3 = FGFR3 (UniProt P22607); test: as above
Hck = Hck (UniProt P08631); test: as above
FGFR1 = FGFR1 (UniProt P11362); test: as above
Grb2 SH2 = Grb2 SH2 (UniProt P62993); test: SH2 binding enrichment of the phosphorylated peptide, bacterial display (enrichment ratio); higher = better substrate or ligand; peptides without Tyr show the background
SHP2-C SH2 = test: as above
c-Src SH2 = test: as above
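Wherever SH2 binding enrichment of the phosphorylated peptide, bacterial display is given: peptide library displayed on the E. coli surface as eCPX fusions, selected cells deep-sequenced, score is each peptide's frequency after selection divided by its frequency in the input.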
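Wherever phosphorylation enrichment, bacterial display is given: 11-residue human phosphosite peptides and single-mutation variants displayed on the E. coli surface, counted by deep sequencing, each peptide's frequency after selection divided by its frequency in the unselected input library; frequency after pTyr selection over input frequency; kinase dosed for 20-30% of maximal phosphorylation in three min.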

Chain of Jak2 (O60674 whole entry, looked up): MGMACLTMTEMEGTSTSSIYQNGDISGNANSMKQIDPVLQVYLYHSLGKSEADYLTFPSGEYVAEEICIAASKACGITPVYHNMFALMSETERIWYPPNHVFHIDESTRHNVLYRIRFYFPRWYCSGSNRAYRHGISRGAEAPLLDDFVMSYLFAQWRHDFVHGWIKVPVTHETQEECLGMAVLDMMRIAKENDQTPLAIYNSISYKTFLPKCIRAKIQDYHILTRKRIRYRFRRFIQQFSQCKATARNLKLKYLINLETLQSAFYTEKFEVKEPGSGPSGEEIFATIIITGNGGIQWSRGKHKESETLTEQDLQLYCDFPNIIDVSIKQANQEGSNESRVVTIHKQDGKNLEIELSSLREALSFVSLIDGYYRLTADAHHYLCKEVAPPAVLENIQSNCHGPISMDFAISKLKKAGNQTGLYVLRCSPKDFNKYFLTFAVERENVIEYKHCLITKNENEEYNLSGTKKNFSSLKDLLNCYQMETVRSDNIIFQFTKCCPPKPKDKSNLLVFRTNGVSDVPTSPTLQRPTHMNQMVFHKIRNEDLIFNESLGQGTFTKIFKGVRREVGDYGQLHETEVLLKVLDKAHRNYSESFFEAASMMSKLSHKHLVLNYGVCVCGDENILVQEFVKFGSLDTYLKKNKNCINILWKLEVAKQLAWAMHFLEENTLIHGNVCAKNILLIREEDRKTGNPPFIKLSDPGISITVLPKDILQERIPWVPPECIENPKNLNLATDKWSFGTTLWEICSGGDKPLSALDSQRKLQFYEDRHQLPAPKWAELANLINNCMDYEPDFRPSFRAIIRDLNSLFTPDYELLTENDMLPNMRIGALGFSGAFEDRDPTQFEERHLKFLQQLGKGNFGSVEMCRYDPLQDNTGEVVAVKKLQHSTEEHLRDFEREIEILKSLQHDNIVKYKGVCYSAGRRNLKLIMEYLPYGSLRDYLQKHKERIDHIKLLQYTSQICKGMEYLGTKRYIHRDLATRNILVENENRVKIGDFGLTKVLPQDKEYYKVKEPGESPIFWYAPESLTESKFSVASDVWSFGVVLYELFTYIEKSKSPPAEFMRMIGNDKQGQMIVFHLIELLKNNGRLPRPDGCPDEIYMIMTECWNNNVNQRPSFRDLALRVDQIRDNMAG
Chain of FGFR3 (P22607 whole entry, looked up): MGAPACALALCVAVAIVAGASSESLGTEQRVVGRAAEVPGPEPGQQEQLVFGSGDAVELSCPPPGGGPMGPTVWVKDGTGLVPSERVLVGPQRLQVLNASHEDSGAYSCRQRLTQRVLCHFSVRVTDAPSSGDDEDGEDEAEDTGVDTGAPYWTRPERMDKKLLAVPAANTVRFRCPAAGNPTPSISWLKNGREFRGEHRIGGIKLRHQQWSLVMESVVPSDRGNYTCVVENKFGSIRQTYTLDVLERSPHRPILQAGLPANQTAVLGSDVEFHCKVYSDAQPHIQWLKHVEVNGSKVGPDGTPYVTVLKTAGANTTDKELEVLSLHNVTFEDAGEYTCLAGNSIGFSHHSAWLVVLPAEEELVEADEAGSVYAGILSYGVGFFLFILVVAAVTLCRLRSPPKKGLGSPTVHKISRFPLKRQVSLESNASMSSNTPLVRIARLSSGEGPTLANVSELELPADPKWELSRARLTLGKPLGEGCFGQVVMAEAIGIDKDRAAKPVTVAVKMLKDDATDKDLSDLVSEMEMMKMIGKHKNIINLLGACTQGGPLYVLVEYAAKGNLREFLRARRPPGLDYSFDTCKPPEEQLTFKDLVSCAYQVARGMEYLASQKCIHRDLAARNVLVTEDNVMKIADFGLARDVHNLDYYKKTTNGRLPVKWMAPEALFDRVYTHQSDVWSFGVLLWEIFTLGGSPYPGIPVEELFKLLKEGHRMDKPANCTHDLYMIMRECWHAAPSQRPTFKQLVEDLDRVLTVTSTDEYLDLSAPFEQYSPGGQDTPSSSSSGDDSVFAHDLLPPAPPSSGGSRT
Chain of FGFR1 (P11362 whole entry, looked up): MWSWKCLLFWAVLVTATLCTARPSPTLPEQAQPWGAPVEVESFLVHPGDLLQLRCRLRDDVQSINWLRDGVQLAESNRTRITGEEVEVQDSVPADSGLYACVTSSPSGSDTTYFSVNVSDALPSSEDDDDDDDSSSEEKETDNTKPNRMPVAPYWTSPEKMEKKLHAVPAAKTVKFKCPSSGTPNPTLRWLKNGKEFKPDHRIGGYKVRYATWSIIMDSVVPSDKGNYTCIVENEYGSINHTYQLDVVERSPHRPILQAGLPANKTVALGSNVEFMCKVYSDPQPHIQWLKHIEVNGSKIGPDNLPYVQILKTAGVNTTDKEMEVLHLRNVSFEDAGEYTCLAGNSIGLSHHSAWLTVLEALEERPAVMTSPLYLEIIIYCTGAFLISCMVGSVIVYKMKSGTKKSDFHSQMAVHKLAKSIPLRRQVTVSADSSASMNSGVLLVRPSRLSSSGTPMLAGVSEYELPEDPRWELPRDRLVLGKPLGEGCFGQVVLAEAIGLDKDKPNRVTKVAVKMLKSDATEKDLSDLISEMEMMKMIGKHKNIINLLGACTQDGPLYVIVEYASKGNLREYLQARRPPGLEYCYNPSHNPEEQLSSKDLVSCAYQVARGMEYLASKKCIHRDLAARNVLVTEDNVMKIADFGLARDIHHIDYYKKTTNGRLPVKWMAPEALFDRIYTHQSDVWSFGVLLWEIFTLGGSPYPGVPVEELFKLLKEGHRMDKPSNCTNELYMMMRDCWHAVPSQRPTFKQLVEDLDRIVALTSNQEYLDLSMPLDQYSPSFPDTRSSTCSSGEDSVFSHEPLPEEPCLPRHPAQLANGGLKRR
Chain of MERTK (Q12866 whole entry, looked up): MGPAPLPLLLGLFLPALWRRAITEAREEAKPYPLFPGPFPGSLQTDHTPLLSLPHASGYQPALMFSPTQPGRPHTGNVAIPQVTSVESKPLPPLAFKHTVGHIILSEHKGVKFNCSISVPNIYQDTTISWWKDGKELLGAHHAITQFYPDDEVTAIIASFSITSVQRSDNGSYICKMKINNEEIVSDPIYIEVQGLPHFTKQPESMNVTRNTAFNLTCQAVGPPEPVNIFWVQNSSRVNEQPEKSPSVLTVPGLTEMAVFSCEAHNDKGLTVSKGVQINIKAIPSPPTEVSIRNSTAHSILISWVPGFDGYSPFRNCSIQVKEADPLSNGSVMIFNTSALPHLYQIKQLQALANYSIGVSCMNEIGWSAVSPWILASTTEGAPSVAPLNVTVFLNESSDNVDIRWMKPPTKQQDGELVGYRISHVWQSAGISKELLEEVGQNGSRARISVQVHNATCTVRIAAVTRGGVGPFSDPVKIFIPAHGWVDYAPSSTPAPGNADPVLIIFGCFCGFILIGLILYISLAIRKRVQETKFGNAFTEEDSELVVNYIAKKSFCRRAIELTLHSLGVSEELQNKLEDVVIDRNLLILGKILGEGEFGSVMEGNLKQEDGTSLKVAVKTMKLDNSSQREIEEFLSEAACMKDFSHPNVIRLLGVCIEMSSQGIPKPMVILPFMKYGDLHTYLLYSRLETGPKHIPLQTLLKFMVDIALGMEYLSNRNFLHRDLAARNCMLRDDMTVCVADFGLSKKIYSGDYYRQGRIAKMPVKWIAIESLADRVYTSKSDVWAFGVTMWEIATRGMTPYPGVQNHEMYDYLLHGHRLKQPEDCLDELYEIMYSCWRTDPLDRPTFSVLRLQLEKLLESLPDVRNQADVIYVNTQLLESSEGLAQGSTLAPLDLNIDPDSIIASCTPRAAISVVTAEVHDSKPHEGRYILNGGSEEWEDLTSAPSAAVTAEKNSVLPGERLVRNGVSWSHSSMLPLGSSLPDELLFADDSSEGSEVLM
Chain of EPHB1 (P54762 whole entry, looked up): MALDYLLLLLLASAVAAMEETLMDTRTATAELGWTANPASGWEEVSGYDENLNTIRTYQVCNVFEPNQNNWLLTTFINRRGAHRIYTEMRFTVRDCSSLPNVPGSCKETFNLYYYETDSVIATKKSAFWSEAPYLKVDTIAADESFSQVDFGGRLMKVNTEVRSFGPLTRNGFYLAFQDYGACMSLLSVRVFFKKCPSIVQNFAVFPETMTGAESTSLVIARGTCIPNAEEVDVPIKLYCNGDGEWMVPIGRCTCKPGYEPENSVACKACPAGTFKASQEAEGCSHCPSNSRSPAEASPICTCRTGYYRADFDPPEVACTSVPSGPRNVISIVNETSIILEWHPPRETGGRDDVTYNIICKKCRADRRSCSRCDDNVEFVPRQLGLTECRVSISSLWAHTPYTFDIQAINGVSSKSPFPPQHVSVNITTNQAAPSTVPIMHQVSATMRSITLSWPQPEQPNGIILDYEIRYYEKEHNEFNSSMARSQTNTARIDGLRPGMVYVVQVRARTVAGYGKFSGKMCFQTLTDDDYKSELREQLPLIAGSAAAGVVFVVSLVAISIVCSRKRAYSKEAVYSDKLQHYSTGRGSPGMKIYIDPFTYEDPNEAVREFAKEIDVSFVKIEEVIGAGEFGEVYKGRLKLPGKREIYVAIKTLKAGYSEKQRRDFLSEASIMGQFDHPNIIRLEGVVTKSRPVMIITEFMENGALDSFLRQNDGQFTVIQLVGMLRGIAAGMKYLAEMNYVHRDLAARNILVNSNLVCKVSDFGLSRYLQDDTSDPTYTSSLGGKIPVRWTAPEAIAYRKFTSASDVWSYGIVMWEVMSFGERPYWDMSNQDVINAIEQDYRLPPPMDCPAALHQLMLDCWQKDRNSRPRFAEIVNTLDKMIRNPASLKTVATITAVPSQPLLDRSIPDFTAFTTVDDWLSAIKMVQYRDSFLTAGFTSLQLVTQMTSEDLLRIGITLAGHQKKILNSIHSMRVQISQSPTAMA

SH2 binding enrichment (Grb2 SH2) | SH2 binding enrichment (SHP2-C SH2) | SH2 binding enrichment (c-Src SH2) | Sequence | phosphorylation enrichment (Jak2) | phosphorylation enrichment (EPHB1) | phosphorylation enrichment (c-Src) | phosphorylation enrichment (Fyn) | phosphorylation enrichment (EPHB2) | phosphorylation enrichment (AncSZ) | phosphorylation enrichment (Fer (mouse)) | phosphorylation enrichment (MERTK) | phosphorylation enrichment (c-Abl (mouse)) | phosphorylation enrichment (Fes) | phosphorylation enrichment (FGFR3) | phosphorylation enrichment (Hck) | phosphorylation enrichment (FGFR1)
0.588 | 0.524 | 0.366 | TLGPFYPSLLF [CRYAA_Y18_R21L] | 0.776 | 0.687 | 0.455 | 0.535 | 0.541 | 0.865 | 0.544 | 0.452 | 0.667 | 1.03 | 1.09 | 0.51 | 0.646
1.16 | 0.809 | 0.66 | TLKDVCDDGKF [RPS6KA3_Y483_Y483C_YF] | 0.873 | 0.555 | 0.433 | 0.446 | 0.545 | 1.03 | 0.523 | 0.498 | 0.885 | 1.1 | 0.601 | 0.427 | 0.583
0.835 | 0.805 | 0.464 | TLLAFYMGNFS [GLB1_Y552_P549L] | 1.59 | 0.943 | 0.98 | 0.408 | 0.661 | 1.18 | 0.559 | 0.625 | 1.06 | 1.49 | 0.839 | 0.62 | 0.435
1.01 | 0.874 | 7.34 | TLNHQYDYTFH [CSNK1A1_Y292_D297H] | 0.654 | 0.772 | 1.16 | 0.536 | 0.873 | 0.998 | 1.4 | 1.11 | 0.512 | 0.753 | 1.38 | 0.596 | 2.69
0.868 | 0.809 | 0.624 | TLPAFYMGNFS [GLB1_Y552] | 1.03 | 0.645 | 0.523 | 0.627 | 0.619 | 0.998 | 0.625 | 0.538 | 0.661 | 1.02 | 0.728 | 0.565 | 0.543
0.854 | 0.729 | 0.545 | TLQTMYGCDVG [HLA-B_Y123_S121T] | 0.979 | 0.909 | 0.68 | 0.554 | 0.589 | 1.13 | 0.838 | 0.647 | 0.849 | 1.15 | 0.772 | 0.579 | 0.556
0.948 | 2.21 | 0.588 | TNRSVYFKPSL [NUP153_Y382] | 0.66 | 0.453 | 0.511 | 0.421 | 0.369 | 0.667 | 0.433 | 0.455 | 0.556 | 0.595 | 0.447 | 0.551 | 0.448
1.18 | 2 | 0.696 | TNYCLYLRSLE [MTM1_Y71_R69C] | 1.29 | 1.93 | 0.887 | 0.545 | 1.52 | 1.67 | 0.614 | 1.19 | 0.883 | 1.46 | 1 | 0.668 | 0.814
0.991 | 0.661 | 0.509 | TQIGQYGNGLK [MORC2_Y100] | 0.358 | 0.29 | 0.272 | 0.352 | 0.258 | 0.475 | 0.387 | 0.316 | 0.339 | 0.432 | 0.345 | 0.421 | 0.434
0.626 | 0.478 | 0.545 | TRVMEYISCLD [CLTCL1_Y1043_R1046C] | 0.995 | 0.661 | 0.457 | 0.521 | 0.749 | 1.18 | 0.592 | 0.507 | 1.08 | 1.18 | 0.843 | 0.647 | 0.599
0.823 | 0.433 | 0.538 | TSPKSYPSQKH [CAP2_Y316] | 0.463 | 0.364 | 0.466 | 0.434 | 0.359 | 0.613 | 0.45 | 0.44 | 0.53 | 0.526 | 0.497 | 0.363 | 0.357
1.1 | 0.779 | 0.663 | TSQSQYSSFRE [CCDC170_Y323_F324S] | 0.687 | 0.51 | 1.88 | 1.37 | 0.77 | 0.604 | 0.523 | 0.57 | 0.607 | 0.626 | 0.531 | 1.14 | 0.63
0.985 | 1.24 | 0.649 | TSYSGYRYHRH [NKAPL_Y94] | 0.439 | 0.536 | 0.555 | 0.891 | 0.42 | 0.52 | 0.418 | 0.382 | 0.46 | 0.501 | 0.433 | 0.628 | 0.407
1.15 | 1.26 | 0.651 | TVEDHDYEGGI [TKT_Y563_Y563D] | 0.963 | 0.543 | 0.526 | 0.478 | 0.583 | 1.08 | 0.559 | 0.49 | 0.654 | 1.17 | 0.727 | 0.5 | 0.481
1.01 | 0.793 | 0.455 | TVLWQYTGTRP [UGT1A1_Y337_R336Q] | 1.01 | 0.539 | 0.22 | 0.398 | 0.43 | 0.903 | 0.419 | 0.345 | 0.436 | 1.04 | 0.645 | 0.499 | 0.366
1.11 | 0.718 | 0.491 | TYGVVYRAKDK [CDK11B_Y453] | 0.525 | 0.75 | 8.45 | 11.6 | 0.59 | 0.595 | 0.733 | 1.31 | 0.531 | 1.16 | 0.42 | 9.58 | 0.583
1.64 | 1.36 | 1.53 | TYVVLYDAELT [ERCC4_Y581_R576T] | 1.05 | 4.46 | 0.795 | 0.87 | 2.67 | 1.37 | 0.515 | 2.56 | 0.67 | 1.16 | 1.52 | 0.891 | 1.79
